doi:10.1101/2023.01.10.523203 (bioRxiv, 2023)
Where “and” joins values, the source holds several entries; their conditions need not be identical. Identical values can stand only once.

Target: the molecule itself
Assay: SEC

B1: LZTR1^L580P recombinant protein (LZTR1-Myc-6xHis with p.L580P) (natural protein)
chain: MAGPGSTGGQIGAAALAGGARSKVAPSVDFDHSCSDSVEYLTLNFGPFETVHRWRRLPPCDEFVGARRSKHTVVAYKDAIYVFGGDNGKTMLNDLLRFDVKDCSWCRAFTTGTPPAPRYHHSAVVYGSSMFVFGGYTGDIYSNSNLKNKNDLFEYKFATGQWTEWKIEGRLPVARSAHGATVYSDKLWIFAGYDGNARLNDMWTIGLQDRELTCWEEVAQSGEIPPSCCNFPVAVCRDKMFVFSGQSGAKITNNLFQFEFKDKTWTRIPTEHLLRGSPPPPQRRYGHTMVAFDRHLYVFGGAADNTLPNELHCYDVDFQTWEVVQPSSDSEVGGAEVPERACASEEVPTLTYEERVGFKKSRDVFGLDFGTTSAKQPTQPASELPSGRLFHAAAVISDAMYIFGGTVDNNIRSGEMYRFQFSCYPKCTLHEDYGRLWESRQFCDVEFVLGEKEECVQGHVAIVTARSRWLRRKITQARERLAQKLEQEAAPVPREAPGVAAGGARPPLLHVAIREAEARPFEVLMQFLYTDKIKYPRKGHVEDVLLIMDVYKLALSFQLCRLEQLCRQYIEASVDLQNVPVVCESAARLQLSQLKEHCLNFVVKESHFNQVIMMKEFERLSSPLIVEIVRRKQQPPPRTPLDQPVDIGTSLIQDMKAYLEGAGAEFCDITLLLDGHPRPAHKAILAARSSYFEAMFRSFMPEDGQVNISIGEMVPSRQAFESMLRYIYYGEVNMPPEDSLYLFAAPYYYGFYNNRLQAYCKQNLEMNVTVQNVLQILEAADKTQALDMKRHCLHIIVHQFTKVSKLPTLRSLSQQLLLDIIDSLASHISDKQCAELGADI
stoichiometry N: 6 and 4
